Measured values published in patent publication US20240382513A1.

Molecular target: transferrin receptor (on Hepa 1-6 cells; in tissues of C57BL/6 wild-type mice) (mouse) (UniProt Q62351)
Assay: cell-based or functional assay

UniProt Q62351, sequence (Q62351 whole entry): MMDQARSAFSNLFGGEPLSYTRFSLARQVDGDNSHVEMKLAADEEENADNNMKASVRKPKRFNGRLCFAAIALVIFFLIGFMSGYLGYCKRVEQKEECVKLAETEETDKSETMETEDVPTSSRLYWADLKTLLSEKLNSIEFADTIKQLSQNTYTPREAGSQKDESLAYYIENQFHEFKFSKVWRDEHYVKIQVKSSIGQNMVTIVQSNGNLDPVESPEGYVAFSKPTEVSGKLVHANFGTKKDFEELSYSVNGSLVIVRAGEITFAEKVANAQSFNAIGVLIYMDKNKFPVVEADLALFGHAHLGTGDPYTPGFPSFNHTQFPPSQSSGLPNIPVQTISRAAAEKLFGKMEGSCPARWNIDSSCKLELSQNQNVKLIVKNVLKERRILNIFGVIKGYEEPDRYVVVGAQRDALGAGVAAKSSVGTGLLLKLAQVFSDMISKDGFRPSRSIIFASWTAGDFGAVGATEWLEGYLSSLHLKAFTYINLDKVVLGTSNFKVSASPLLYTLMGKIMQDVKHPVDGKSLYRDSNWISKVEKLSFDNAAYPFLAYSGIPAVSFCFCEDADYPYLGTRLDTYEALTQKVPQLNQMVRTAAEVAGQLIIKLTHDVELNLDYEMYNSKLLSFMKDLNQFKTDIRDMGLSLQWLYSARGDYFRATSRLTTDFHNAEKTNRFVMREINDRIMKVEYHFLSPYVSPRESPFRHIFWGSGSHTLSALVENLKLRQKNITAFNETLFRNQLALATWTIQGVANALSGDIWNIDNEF

HPRT expression in gastrocnemius of C57BL/6 mice, three days after a single i.v. dose (2 mg/kg of RNA): 31%
HPRT expression in heart of C57BL/6 mice, three days after a single i.v. dose (2 mg/kg of RNA): 30%
decrease in HPRT expression in Hepa 1-6 cells after 72 hour incubation with 100 nM complex: 50%
Substance: antiTfR-siHPRT complex: RI7 217 anti-TfR1 Fab (DTX-A-002) covalently linked via a non-cleavable GMBS linker to the HPRT siRNA (siHPRT)
